Literature values, collected in article PMC8569200.

Target: CD137 (Homo sapiens) (UniProt Q07011)
Assay: SPR

CD137 (Homo sapiens), sequence (Q07011 24-255): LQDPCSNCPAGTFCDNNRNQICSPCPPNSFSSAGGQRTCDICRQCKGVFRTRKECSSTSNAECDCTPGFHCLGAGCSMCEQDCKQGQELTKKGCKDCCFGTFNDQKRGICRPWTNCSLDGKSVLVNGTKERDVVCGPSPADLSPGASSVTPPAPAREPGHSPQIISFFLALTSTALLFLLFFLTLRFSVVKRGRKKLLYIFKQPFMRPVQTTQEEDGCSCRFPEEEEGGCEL
CD137L, sequence (P41273 whole entry): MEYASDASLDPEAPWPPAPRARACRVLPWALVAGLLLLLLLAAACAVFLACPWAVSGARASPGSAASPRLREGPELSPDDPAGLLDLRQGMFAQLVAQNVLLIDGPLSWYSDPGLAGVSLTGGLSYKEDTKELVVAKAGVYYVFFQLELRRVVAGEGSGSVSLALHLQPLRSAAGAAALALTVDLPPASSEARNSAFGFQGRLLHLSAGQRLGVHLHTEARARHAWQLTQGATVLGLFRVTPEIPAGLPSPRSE

For CD137L (from UniProt P41273), the Kd is given as 680 nM.
